Data taken from the NTF2 design screens of Basanta et al. (2020).

Assay: protease stability score; higher = more stable; yeast display proteolysis, trypsin and chymotrypsin;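 further: relative to predicted unfolded state with 0 unfolded-like and 1 meaning tenfold more protease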

Sequence: DEDEDHVRDMIEVFVRLMITGDEDTFKNLADPHVQFHFENVKLHGRHALLEWLRRLNREFKNIRVQILVHHVEVQGEKATVHSHIVVHVGDKTEHYDTELHIIVIDGRIKTVIIKRK
- protease stability score: 1.5

Sequence: DEDEDIVRRHLHKLSKAWRTGDEETEKKLADPHARIQIGDKTDHGMEKMTKDWHEFLREMRVEIRIEDTRVQGDKVVNHIHIHSDIDGKEIILHSRIIVRKIDGRWHIESFVLI
- protease stability score: 0.475

Sequence: DEDEDLLRRFTELWNHIYLTGDERMLHHLVDPHARLDVNGKEMHGRELLIKWMVKEIRDLGADHYRIDIKHYHFVDGRAHVQSTLEVDIGDKRITFYIRLILLKVNGRWVVHTIYYH
- protease stability score: 1.55

Sequence: DEDEDSFRRISKLLSHAFRTGDEDLVLELLDPHVRIVIGDKELHGWEQMDRWVRELRIRDHEIKRLDIQGDKAIVDTRLLTRVGDFHYLIDVRIIFTKVDGQWHVHQFEFH
- protease stability score: 1.52

Sequence: DEDEDTAHETWKILVHSLITGDERTMELLMDPNVQVHVGDKRHIGRERASRFHSEIRTEHVEMRTSEMQGNKVILHGRVVMRVNGKTLDHDFHLILDKIDGKWYITEIRFK
- protease stability score: 0.517

Sequence: DEDEEAAEKMTELFRKSIKTGDEDLLTRLIDPHVRVDVNGRDIHGRESYFHELRNLGITNVEMQLKSRDVIGDKVHIDGTNRFNGRNHKVIIIVLKFNGRWVIEEIRIH
- protease stability score: -0.045

Sequence: DEDEEAARHFLEQWLEALLTGDEETLTKLLDPHTRLIVDGQELVGRELWLEFFKRIKNMKIHRTEIRHTTSIGDKITLNIHVDVEVDGKRRRFDVQYVILKVNGRWLLKQVNNH
- protease stability score: 0.498

Sequence: DEDEEALDRFLEEWRRYFETGNWEMISNLVDPHARLEQGDKRFHGREEVAKYIHHLVRHMRINDFDIEHRDVQGDKIRIHLRLNGEIDGRRTEFEIHMIYIKVNGRWVVKSMVVN
- protease stability score: 0.882

Sequence: DEDEEASKIFWEIWLHNVRTGDEHAINELVDPHVKMVYGDKTFHGMKMLERLYRELGVKHMEVRLDDERLINGVLTLDTRLIIRVDGRTIDIKTEIIALKVNGKWVVKSITYR
- protease stability score: 1.1

Sequence: DEDEEATRYALELMKKMHETGDEDSIKHLMDPHTKMDVNGVIFHGREAFHVWLNRFDVIRRFNIKHMKSVGDFLHIEGELDSEVNGKRIVTEVRIVSFKFNGRWHLSSTKIL
- protease stability score: 1.53

Sequence: DEDEEAVRHVVEEWFKFLLTGDEESFEKMFDPSARLIIGDKHYHGRDLLSHVLRELRFKEHRIHDMEIRVVNGKAEVIIHGHEVGIWNGVESESHSEIIIIIDKYDGRWHFHSVEIIFR
- protease stability score: 2

Sequence: DEDEEDAHRAVQKLTEVINTGDWETFEKFADPNTRFEYGNFHIHGREVIRHFWLHEVEKFKNITIFIRHVQVINGRVESHGENRFNGKSYHFHIIFRKFNGRWHLERIHLE
- protease stability score: 1.61

Sequence: DEDEEDAQEILKRFVHANETGDWRILEELIDPNARYEQGDKHLVGREEVLRRMIELGIKHTYIHSFSVQGDKLRLDTSIQFENHRVKTHLILNKINGRWVIKSIHIH
- protease stability score: 1.91

Sequence: DEDEEDARIAWEILVRVWKTGDEEELMKMADPNTRLEINGREFHGREHYLHMSRELRVERVDVRRLEVFDGKVHLEGESHMEVNGKRRTHKVVHIMRKIDGRWHIEYFIVH
- protease stability score: 1.31

Sequence: DEDEEDARRFLEILQHHMRTGDWDSLYRLLDPHVRLHIGDKHHHGREEIRKHLHHLRFKELENRHITVYDGRMHVHGRIQGKFDGRDDKYESEIVVLKVDGQWLIEEIHVK
- protease stability score: 2.06

Sequence: DEDEEDIRKAVKDFSENFQTGDEDRFKELADPNDRMHVNGREVHGRENIVKSLREEWKRLGVDHIHFEVRRITVQGEKIIVFSFLRIDNENERHHEDVLIIMRKVDGRWMIRTIRVR
- protease stability score: 1.45

Sequence: DEDEEDKKWMSEHLENLIHTGDEENLLKLVDPHAKVLVDGRTRHGRETLETWLDRFLRELGVDRVESRITHFDRIDGKVHVIMSIHVNGVDFISHSISQKVNGRWVIRSLHYDER
- protease stability score: 0.587

Sequence: DEDEEDMRHALELIYRTFETGDERTTEELMDPHARIDIGEFKLHGREEAVEFYRLLLRKVKNLTIKIHHVEVYGEKITIDGRIDFDGRKRRVIILVEKVDGKWVINEIRVH
- protease stability score: 1.42

Sequence: DEDEEDVDRVSRRWARAMTTGDEDELRELLDPNTRYVQGDKHLHGRTQFERHLREMRFIIHDVRVDNITIIDGRMHIHGHVVGELRTEDHEHHFIFRFHLIVMKINGKWLIKHVDVQ
- protease stability score: 0.819

Sequence: DEDEEEAEERVKEWIKALRTGDEDHILELVDPNDRFIINGVHLHGREFLLRWLRELRVDDVEVKTIKFVDGVAHVDTKMRVTVDGRETELETRLIWKKFDGRWFIESHRIR
- protease stability score: 1.62

Sequence: DEDEEEAEKFFWTWVESVLTGDEDMLHHLVDPNVRYSQGEKQIHGRESVVKFMSEARVDSIRIKSMHIFNGRINIDSEIDGVINGKRTRIKVHLYILKVDGRWLMQSIEVK
- protease stability score: 2.03

Sequence: DEDEEEAKEFLRIYIEALRTGDEDLWKEMADPNMRLIVGDKERHGRESYTHWERELGYRLEHIHIDHVTFQGDKVDVETTLRIHINGQTHDVEIHLIVTKIDGRWHMKEIIIK
- protease stability score: 1.08

Sequence: DEDEEEALDFMRLLVESLQTGDEELISRMADPNVLLIVNGVEHVGREFYVKWVKHLVERVDHMEIRLKRIEIYDGRAHLDTEVIFRFNGRELRKKTHLIIEKVDGRWILKSVIVE
- protease stability score: 2.35

Sequence: DEDEEEARKSFKHLLRSRMTGDEDSLKSLIDPNARFDIDGKELIGREAEELLLEKFKNIKLHDVKLNDWRVDEHHVVWRIELDGFYNGKRDSLDFTLIVKKVNGRWVIHQVKLI
- protease stability score: 1.39

Sequence: DEDEEEIKRMIEEWFRSLVTGDEHQLKELMDPHVRLDINGVEHIGREEIVERLVKEARQADHMEFRVRDVRLVGDYAEIDGELIVNYNGREKSIETRIILWKFNGRWIDHQVHYK
- protease stability score: 1.03
